Source: patent US20040146507A1 (Genentech, published 2004)
Several values for one entry are separate records, joined by “and”; a condition that tells them apart may be missing. Equal entries are not always repeated. Values belong to the binder of their own block, whether it stands above or below them.

Assays:
[1] = molecular target: T1, human CD11a (human, UniProt P20701 26-1170); assay: saturation binding, human lymphocytes, donor 2; Kd(app)
T1 construct: whole, on cells; On Jurkat T-cells or human peripheral blood mononuclear cells, as part of LFA-1; also called CD11a on Jurkat cells; alpha subunit of LFA-1
Method: (§1) Radiolabeled antibodies were prepared using Iodo-Gen (Pierce, Rockford, Ill.) according to the manufacturer's instructions. 50 μg of antibody and 1 mCi¹²⁵I (DuPont, Wilmington, Del.) were added to each tube and incubated for 15 min at 25° C. Radiolabeled proteins were purified from the remaining free ¹²⁵I using PD-10 columns (Pharmacia, Uppsala, Sweden) equilibrated in Hank's Balanced Salt Solution (HBSS, Life Technologies, Grand Island, N.Y.) containing 0.2% gelatin.
(§2) Antibody affinities were determined by saturation binding using either peripheral blood mononuclear cells (murine MHM24 and HuIgG1) or rhesus leukocytes (MHM23, RhIgG1). In each assay, a radiolabeled antibody was serially diluted in HBSS-0.2% gelatin in quadruplicate. Nonspecific binding was determined by the addition of 500 nM final concentration of homologous unlabeled antibody in duplicate through the serial dilution. Human lymphocytes or rhesus leukocytes were added to the plates in a volume of 170 μl per well. Plates were incubated for 2 hr at room temperature on an orbital plate shaker. After incubation, cells were harvested using a SKATRON™ cell harvester (Lier, Norway) and washed 10 times with PBS containing 0.25% gelatin and 0.1% sodium azide. Samples were then counted for 1 min in an LBK Wallac GammaMaster gamma counter (Gaithersburg, Md.). […]

[2] = molecular target: T2, rhesus CD11a (rhesus, UniProt H9Z8N3 26-1169); assay: rhesus PBL binding
T2 construct: whole, on cells; On rhesus peripheral blood lymphocytes or leukocytes; also called rhCD11a
T2 sequence: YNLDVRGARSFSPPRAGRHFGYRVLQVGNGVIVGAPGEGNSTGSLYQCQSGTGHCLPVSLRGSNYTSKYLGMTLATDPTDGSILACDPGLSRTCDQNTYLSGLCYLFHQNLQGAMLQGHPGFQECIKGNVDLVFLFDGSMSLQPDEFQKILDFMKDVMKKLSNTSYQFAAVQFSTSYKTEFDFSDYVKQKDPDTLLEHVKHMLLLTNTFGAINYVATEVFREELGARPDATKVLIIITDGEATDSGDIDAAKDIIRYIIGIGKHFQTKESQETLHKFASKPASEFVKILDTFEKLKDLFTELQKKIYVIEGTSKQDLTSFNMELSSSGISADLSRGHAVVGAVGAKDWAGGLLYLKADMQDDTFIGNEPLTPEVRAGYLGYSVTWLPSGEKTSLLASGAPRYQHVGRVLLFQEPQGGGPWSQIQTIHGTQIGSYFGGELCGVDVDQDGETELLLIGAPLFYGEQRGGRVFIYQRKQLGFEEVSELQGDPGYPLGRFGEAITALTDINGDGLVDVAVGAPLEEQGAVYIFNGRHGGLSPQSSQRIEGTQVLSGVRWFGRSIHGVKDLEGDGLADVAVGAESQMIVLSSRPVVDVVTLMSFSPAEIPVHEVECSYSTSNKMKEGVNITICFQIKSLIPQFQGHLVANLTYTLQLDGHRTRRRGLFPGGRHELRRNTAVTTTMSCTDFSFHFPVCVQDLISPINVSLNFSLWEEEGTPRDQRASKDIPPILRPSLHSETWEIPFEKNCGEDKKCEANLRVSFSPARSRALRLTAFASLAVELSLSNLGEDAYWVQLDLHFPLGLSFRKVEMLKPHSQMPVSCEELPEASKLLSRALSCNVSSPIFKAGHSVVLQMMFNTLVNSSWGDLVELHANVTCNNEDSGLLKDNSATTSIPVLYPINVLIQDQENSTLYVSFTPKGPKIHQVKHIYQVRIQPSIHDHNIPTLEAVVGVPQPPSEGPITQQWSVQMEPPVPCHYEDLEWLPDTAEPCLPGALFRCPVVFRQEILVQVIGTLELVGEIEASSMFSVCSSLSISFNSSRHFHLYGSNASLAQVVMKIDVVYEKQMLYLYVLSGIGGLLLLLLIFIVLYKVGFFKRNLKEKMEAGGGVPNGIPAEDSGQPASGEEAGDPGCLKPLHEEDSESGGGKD

[3] = molecular target: T2, rhesus CD11a; assay: binding to rhesus peripheral blood lymphocytes
[4] = molecular target: T1, human CD11a; assay: FACScan, Jurkat cells
In short: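 Flow-cytometric binding to 10⁶ Jurkat T-cells with serially diluted humanized antibodies (including CDR alanine-scan mutants of HuIgG1), 45 min at 4 °C in PBS-0.1% BSA-10 mM sodium azide. Detected with fluorescein anti-human F(ab′)₂, 45 min at 4 °C; 8×10³ scatter-gated live cells acquired.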

[5] = molecular target: T1, human CD11a; assay: not stated (summary of the Example)
[6] = molecular target: T1, human CD11a; assay: FACScan, Jurkat cells; remark: listed apart in the source
Method: (§3) Aliquots of 10⁶ Jurkat T-cells were incubated with serial dilutions of humanized and control antibodies in PBS-0.1% BSA-10 mM sodium azide for 45 min at 4° C. The cells were washed and then incubated in fluorescein-conjugated goat anti-human F(ab′)₂ (Organon Teknika, Westchester, Pa.) for 45 min at 4° C. Cells were washed and analysed on a FACScan (Becton Dickinson, Mountain View, Calif.). 8×10³ cells were acquired by list mode and gated by forward light scatter versus side light scatter, thereby excluding dead cells and debris.
To determine which CDR residues were involved in binding to human CD11a an alanine-scan (Cunningham et al., Science 244:1081 (1989)) was performed on the CDR residues of HuIgG1. Each mutant was tested for binding to CD11a on Jurkat cells. In the light chain only CDR-L3 contributes to binding.

[7] = molecular target: T1, human CD11a; assay: saturation binding, 125I-antibody, human lymphocytes; Kd(app)
Method: as §1, §2

[8] = molecular target: T2, rhesus CD11a; assay: binding to rhesus CD11a compared with human CD11a
[9] = molecular target: T1, human CD11a; assay: cell-based or functional assay
[10] = molecular target: T1, human CD11a; assay: saturation binding, human lymphocytes, donor 1; Kd(app)
Method: as §1, §2

[11] = molecular target: T1, human CD11a; assay: cell-based or functional assay; remark: listed apart in the source
[12] = molecular target: T1, human CD11a; assay: FACScan, Jurkat cells; remark: listed apart in the source
Method: as §3
Target sequence in this assay (P20701 26-1170): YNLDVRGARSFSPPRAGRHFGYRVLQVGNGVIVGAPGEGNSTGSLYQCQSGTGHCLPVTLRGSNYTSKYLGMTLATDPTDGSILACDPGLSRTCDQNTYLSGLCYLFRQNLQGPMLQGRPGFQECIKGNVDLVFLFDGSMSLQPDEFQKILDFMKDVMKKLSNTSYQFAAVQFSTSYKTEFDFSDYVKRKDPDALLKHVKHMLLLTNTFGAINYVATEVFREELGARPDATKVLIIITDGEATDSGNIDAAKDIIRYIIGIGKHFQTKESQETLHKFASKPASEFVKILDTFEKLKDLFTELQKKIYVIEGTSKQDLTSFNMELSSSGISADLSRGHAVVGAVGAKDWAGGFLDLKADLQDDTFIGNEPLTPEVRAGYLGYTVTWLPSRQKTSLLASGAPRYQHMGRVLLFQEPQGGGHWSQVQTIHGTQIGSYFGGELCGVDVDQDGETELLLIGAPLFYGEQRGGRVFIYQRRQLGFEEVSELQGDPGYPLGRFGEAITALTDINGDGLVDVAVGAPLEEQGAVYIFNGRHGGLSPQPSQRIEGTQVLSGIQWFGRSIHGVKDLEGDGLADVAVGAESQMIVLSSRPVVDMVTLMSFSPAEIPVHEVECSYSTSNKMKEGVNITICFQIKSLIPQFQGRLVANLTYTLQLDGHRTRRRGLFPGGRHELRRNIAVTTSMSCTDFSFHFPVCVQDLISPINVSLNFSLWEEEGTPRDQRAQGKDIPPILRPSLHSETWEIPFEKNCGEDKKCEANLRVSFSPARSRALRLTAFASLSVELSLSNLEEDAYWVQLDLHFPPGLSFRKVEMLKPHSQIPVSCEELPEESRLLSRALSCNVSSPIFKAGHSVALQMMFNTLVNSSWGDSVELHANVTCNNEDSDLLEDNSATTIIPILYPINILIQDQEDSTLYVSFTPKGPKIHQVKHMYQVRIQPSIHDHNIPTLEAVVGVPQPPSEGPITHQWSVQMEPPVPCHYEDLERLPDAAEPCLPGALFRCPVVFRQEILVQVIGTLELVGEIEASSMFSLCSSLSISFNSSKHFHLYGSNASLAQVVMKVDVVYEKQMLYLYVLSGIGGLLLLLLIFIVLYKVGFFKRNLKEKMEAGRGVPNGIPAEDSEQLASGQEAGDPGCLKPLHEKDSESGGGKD

[13] = molecular target: T2, rhesus CD11a; assay: saturation binding, rhesus leukocytes, donor 3, with 1 mg/ml human IgG1; Kd(app)
Method: (§4) Leukocytes were purified from heparinized rhesus monkey peripheral blood collected from two individuals by Dextran sedimentation. Blood was diluted with an equal volume of 3% Dextran T500 (Pharmacia) in PBS and was allowed to sediment undisturbed at 25° C. for 30 min. After sedimentation, cells remaining in suspension were harvested and pelleted by centrifugation at 400×g for 5 min. Residual erythrocytes were removed by two cycles of hypotonic lysis using distilled water and 2×HBSS. After erythrocyte lysis, cells were washed in PBS and then resuspended in HBSS-0.2% gelatin.
as §2, with “After incubation, cells were harvested using a SKATRON™ cell harvester (Lier, Norway) and washed 10 times with PBS containing 0.25% gelatin and 0.1% sodium azide.” left out

[14] = molecular target: T2, rhesus CD11a; assay: saturation binding, rhesus leukocytes, donor 1; Kd(app)
Method: as §1
as §4, with “After erythrocyte lysis, cells were washed in PBS and then resuspended in HBSS-0.2% gelatin.” left out
Antibody affinities were determined by saturation binding using either peripheral blood mononuclear cells (murine MHM24 and HuIgG1) or rhesus leukocytes (MHM23, RhIgG1). […] Nonspecific binding was determined by the addition of 500 nM final concentration of homologous unlabeled antibody in duplicate through the serial dilution. […] Samples were then counted for 1 min in an LBK Wallac GammaMaster gamma counter (Gaithersburg, Md.). […]

[15] = molecular target: T3, rhesus-human chimeric CD11a (human (I-domain mutated to rhesus), UniProt P20701 26-1170); assay: cell-based or functional assay
T3 sequence (looked up): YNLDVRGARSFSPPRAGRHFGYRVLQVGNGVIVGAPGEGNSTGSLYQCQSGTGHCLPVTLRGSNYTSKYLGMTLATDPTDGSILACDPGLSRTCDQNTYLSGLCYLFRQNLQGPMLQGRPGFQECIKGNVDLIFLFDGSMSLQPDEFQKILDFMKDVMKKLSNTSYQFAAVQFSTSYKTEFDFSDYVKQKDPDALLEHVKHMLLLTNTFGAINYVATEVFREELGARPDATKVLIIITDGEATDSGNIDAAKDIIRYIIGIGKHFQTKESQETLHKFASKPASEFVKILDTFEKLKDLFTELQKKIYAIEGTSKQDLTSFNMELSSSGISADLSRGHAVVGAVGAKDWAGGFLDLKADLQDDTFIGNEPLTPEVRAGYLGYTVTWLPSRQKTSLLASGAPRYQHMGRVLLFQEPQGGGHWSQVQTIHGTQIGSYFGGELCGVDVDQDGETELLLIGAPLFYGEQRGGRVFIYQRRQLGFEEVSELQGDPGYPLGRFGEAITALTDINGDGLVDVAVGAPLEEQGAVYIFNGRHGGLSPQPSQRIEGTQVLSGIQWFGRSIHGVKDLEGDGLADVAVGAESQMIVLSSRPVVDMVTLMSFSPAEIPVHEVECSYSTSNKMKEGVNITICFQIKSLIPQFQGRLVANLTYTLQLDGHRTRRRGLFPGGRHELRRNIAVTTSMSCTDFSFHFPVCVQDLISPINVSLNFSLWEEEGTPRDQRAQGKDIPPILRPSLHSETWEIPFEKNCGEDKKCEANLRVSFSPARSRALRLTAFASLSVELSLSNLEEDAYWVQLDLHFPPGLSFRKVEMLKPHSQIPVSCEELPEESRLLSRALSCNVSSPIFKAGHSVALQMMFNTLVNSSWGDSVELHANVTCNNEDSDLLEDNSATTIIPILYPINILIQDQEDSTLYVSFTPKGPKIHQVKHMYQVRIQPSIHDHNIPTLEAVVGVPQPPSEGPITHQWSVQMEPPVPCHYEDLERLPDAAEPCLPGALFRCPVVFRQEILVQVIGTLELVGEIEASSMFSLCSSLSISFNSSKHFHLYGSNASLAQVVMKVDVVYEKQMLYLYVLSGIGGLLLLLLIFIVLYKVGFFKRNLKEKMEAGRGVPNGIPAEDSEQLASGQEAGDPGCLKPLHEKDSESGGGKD

[16] = molecular target: T2, rhesus CD11a; assay: cell-based or functional assay
[17] = molecular target: T2, rhesus CD11a; assay: rhesus PBL binding; end of range assigned by the printed EC50s
[18] = molecular target: T2, rhesus CD11a; assay: saturation binding
Method: Antibody affinities were determined by saturation binding using either peripheral blood mononuclear cells (murine MHM24 and HuIgG1) or rhesus leukocytes (MHM23, RhIgG1). In each assay, a radiolabeled antibody was serially diluted in HBSS-0.2% gelatin in quadruplicate. Nonspecific binding was determined by the addition of 500 nM final concentration of homologous unlabeled antibody in duplicate through the serial dilution. Human lymphocytes or rhesus leukocytes were added to the plates in a volume of 170 μl per well. Plates were incubated for 2 hr at room temperature on an orbital plate shaker. After incubation, cells were harvested using a SKATRON™ cell harvester (Lier, Norway) and washed 10 times with PBS containing 0.25% gelatin and 0.1% sodium azide. Samples were then counted for 1 min in an LBK Wallac GammaMaster gamma counter (Gaithersburg, Md.). Data was transformed from counts per minute to nanomolarity and four-parameter curve-fitting of saturation plots (bound versus total) was then performed to determine Kd (app) values.

[19] = molecular target: T3, rhesus-human chimeric CD11a; assay: cell-based or functional assay; remark: listed apart in the source
[20] = molecular target: T2, rhesus CD11a; assay: cell-based or functional assay; remark: listed apart in the source
[21] = molecular target: T2, rhesus CD11a; assay: rhesus PBL binding; remark: listed apart in the source
[22] = molecular target: T2, rhesus CD11a; assay: cell-based or functional assay; remark: listed apart in the source

- Kd [1]: 0.18 nM
- Var.EC50/HuIgG1 EC50 [2]: 1 ratio
- EC50 [3]: 45.6 nM
- EC50 [4]: 0.042 nM
- Kd [5]: 0.2 nM
- Var.EC50/HuIgG1 EC50 [6]: 1 ratio
- Kd [7]: 0.15 nM
- fold reduction in binding against human CD11a [8]: ~1000 fold
- IC50, blocking of cell adhesion, Jurkat: HuK [9]: 0.13 nM
- Kd [10]: 0.11 nM
- IC50, human mixed lymphocyte response [11]: 0.38 nM
- EC50 F(ab)/EC50 F(ab)-2 [12]: 0.004 ratio
B1: humanized MHM24 IgG1 (antibody, V domains shown)
VH: EVQLVESGGGLVQPGGSLRLSCAASGYSFTGHWMNWVRQAPGKGLEWVGMIHPSDSETRYNQKFKDRFTISVDKSKNTLYLQMNSLRAEDTAVYYCARGIYFYGTTYFDYWGQGTLVTVSS
VL: DIQMTQSPSSLSASVGDRVTITCRASKTISKYLAWYQQKPGKAPKLLIYSGSTLQSGVPSRFSGSGSGTDFTLTISSLQPEDFATYYCQQHNEYPLTFGQGTKVEIKR
notes: F(ab)-8 VL and VH domains fused to human constant light and heavy (IgG1) chains; also called HuIgG1; huMHM24

- Kd [13]: 2.8 nM and 2.7 nM
- Kd [14]: 3.9 nM
- Var.EC50/HuIgG1 EC50 [2]: 0.004 ratio
- fold down from MHM23, Rh/HuCD11a-293: HuK adhesion [15]: 4 fold
- fold less efficacious than MHM23, RhLy: HuICAM adhesion [16]: 4 fold
- fold less efficacious than MHM23, RhLy: HuK adhesion [16]: 74 fold
- fold improvement over EC50 of HuIgG1 for rhesus CD11a [17]: 240 to 415 fold
- fold weaker than EC50 of HuIgG1 for human CD11a [17]: 3 to 5 fold
- fold Kd against Kd of HuIgG1 for human CD11a [18]: ~26 fold
- IC50, blocking of cell adhesion, Rh/HuCD11a: HuK [19]: 4.9 nM
- IC50, blocking of cell adhesion, RhLy: HuICAM [20]: 5.3 nM
- IC50, blocking of cell adhesion, RhLy: HuK [20]: 119 nM
- EC50 [21]: 0.19 nM
- IC50, rhesus mixed lymphocyte response [22]: 23.4 nM
B2: rhesus-binding MHM24 IgG1 (antibody, V domains shown)
VH: EVQLVESGGGLVQPGGSLRLSCAASGYSFTGHWMNWVRQAPGKGLEWVGMIAPASSSTRYNQKFKDRFTISVDKSKNTLYLQMNSLRAEDTAVYYCARGIYFYGTTYFDYWGQGTLVTVSS
VL: DIQMTQSPSSLSASVGDRVTITCRASKTISKYLAWYQQKPGKAPKLLIYSGSTLQSGVPSRFSGSGSGTDFTLTISSLQPEDFATYYCQQHNEYPLTFGQGTKVEIKR
notes: HuIgG1 mutant (H52 Ala, H53 Ala, H54 Ser, H56 Ser); human IgG1; also called RhIgG1; H2C12
